Test results from patent US8026218 (UNIVERSITY OF ARIZONA, dated 2011).
Like-named read-outs stand apart in the source and are kept apart here. Bridge positions count the residues as written; N and C are the ends. Square brackets hold non-standard residues; d marks the D form. Ends that are not written are not given here. * marks the point of attachment. Glc = O-glucosyl on Ser side chain (Ser(OGlu)/Ser(OGlc)); NH(3,5-(CF3)2-benzyl) = FC(F)(F)c1cc(CN*)cc(C(F)(F)F)c1; NH‑Bn(CF3)2 = C-terminal Bn(CF3)2 amide; Dmt = Cc1cc(O)cc(C)c1C[C@H](N)C(=O)O; Nle = CCCC[C@H](N)C(=O)O; NHBn = c1ccc(CN*)cc1

Key:
human δ opioid receptor [1] = target: T1, human δ opioid receptor (human, UniProt P41143 1-372); test: cell-based or functional assay
T1 sequence (P41143 whole entry, stated change not applied): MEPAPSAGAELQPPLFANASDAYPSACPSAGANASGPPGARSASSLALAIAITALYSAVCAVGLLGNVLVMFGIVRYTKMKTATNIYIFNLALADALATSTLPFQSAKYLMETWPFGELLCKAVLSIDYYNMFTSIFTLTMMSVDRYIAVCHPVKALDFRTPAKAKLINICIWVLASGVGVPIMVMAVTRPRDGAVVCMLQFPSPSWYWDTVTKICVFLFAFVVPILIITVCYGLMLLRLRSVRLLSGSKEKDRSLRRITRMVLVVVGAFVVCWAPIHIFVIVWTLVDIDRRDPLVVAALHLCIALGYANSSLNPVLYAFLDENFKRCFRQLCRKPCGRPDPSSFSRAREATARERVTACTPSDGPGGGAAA

rat µ opioid receptor [2] = target: T2, rat µ opioid receptor (rat, UniProt P33535 1-398); test: cell-based or functional assay
[3] = target: T3, µ opioid receptor of the guinea pig isolated ileum (guinea pig, UniProt P97266 1-98); test: cell-based or functional assay
T3 sequence (P97266 whole entry): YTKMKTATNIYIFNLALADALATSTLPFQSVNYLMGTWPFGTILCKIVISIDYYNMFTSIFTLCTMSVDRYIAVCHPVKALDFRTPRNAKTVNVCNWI

guinea pig NK1 receptor [4] = target: T4, guinea pig NK1 receptor (guinea pig, UniProt P30547 1-407); test: cell-based or functional assay
T4 sequence (P30547 whole entry): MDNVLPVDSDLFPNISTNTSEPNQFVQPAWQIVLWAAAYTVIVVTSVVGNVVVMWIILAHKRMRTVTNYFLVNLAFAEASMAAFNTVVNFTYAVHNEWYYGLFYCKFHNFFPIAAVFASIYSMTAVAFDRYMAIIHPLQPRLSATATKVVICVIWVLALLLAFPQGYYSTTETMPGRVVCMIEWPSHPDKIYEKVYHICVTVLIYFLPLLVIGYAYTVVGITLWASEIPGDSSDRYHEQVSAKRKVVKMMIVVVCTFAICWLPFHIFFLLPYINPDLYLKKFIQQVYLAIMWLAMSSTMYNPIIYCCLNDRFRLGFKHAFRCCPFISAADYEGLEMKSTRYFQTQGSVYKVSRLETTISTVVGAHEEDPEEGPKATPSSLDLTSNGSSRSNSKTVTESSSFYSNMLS

human δ opioid receptor [5] = target: T1, human δ opioid receptor; test: cell-based or functional assay; remark: listed apart in the source
rat µ opioid receptor [6] = target: T2, rat µ opioid receptor; test: cell-based or functional assay; remark: listed apart in the source
[7] = target: T3, µ opioid receptor of the guinea pig …; test: cell-based or functional assay; remark: listed apart in the source
rat µ opioid receptor [8] = target: T2, rat µ opioid receptor; test: competition vs [3H]DAMGO, rMOR cell membranes
rat µ opioid receptor [9] = target: T2, rat µ opioid receptor; test: competition vs [3H]DAMGO, rMOR cell membranes; remark: listed apart in the source
rat NK1 receptor [10] = target: T5, rat NK1 receptor (rat, UniProt P14600 1-407); test: competition vs [3H]Substance P, rNK1 CHO cell membranes
T5 construct: whole, on cells; membrane preparations of the transfected cells were used; also called rNK1; rNK-1
T5 sequence (P14600 whole entry): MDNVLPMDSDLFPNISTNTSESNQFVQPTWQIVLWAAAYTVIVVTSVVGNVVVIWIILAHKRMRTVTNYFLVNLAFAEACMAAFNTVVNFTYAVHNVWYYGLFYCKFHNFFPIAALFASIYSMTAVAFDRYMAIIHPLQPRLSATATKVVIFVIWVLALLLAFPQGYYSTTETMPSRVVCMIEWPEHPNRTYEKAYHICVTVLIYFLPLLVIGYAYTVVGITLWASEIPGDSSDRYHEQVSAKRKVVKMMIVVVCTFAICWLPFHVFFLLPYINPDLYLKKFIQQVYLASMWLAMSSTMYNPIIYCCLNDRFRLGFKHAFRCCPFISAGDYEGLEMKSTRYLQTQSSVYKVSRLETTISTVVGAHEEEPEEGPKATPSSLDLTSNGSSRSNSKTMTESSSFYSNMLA

rat NK1 receptor [11] = target: T5, rat NK1 receptor; test: as above; remark: listed apart in the source
[12] = target: T3, µ opioid receptor of the guinea pig …; test: cell-based or functional assay; remark: listed apart in the source
guinea pig NK1 receptor [13] = target: T4, guinea pig NK1 receptor; test: cell-based or functional assay; remark: listed apart in the source
human δ opioid receptor [14] = target: T1, human δ opioid receptor; test: competition vs [3H]DPDPE, hDOR cell membranes
human δ opioid receptor [15] = target: T1, human δ opioid receptor; test: competition vs [3H]DPDPE, hDOR cell membranes; remark: listed apart in the source
human NK1 receptor [16] = target: T6, human NK1 receptor (human, UniProt P25103 1-407); test: competition vs [3H]Substance P, hNK1 CHO cell membranes
T6 construct: whole, on cells; membrane preparations of the transfected cells were used; also called hNK1; human neurokinin-1 receptor
T6 sequence (P25103 whole entry): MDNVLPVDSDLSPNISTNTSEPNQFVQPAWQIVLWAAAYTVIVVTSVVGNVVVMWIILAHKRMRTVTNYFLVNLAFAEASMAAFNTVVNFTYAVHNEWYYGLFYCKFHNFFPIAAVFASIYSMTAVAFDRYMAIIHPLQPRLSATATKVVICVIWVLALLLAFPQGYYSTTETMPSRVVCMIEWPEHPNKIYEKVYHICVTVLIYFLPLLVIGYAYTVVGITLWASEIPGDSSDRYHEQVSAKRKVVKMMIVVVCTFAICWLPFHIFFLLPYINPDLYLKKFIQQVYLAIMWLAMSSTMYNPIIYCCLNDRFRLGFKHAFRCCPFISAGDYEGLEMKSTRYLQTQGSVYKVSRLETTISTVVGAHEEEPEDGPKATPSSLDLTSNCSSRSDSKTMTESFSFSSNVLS

rat NK1 receptor [17] = target: T5, rat NK1 receptor; test: competition vs [3H]Substance P, rNK1 CHO cell membranes; remark: listed apart in the source
human NK1 receptor [18] = target: T6, human NK1 receptor; test: competition vs [3H]Substance P, hNK1 CHO cell membranes; remark: listed apart in the source
rat NK1 receptor [19] = target: T5, rat NK1 receptor; test: competition vs [3H]Substance P, rNK1 CHO cell membranes; remark: listed apart in the source
rat µ opioid receptor [20] = target: T2, rat µ opioid receptor; test: competition vs [3H]DAMGO, rMOR cell membranes; remark: listed apart in the source
guinea pig NK1 receptor [21] = target: guinea pig NK1 receptor (guinea pig, UniProt P30547 1-407); test: cell-based or functional assay; remark: listed apart in the source
Target sequence in this assay (P30547 whole entry): as the sequence (P30547 whole entry) above

[22] = target: µ opioid receptor of the guinea pig isolated ileum (guinea pig, UniProt P97266 1-98); test: cell-based or functional assay; remark: listed apart in the source
Target sequence in this assay (P97266 whole entry): as the sequence (P97266 whole entry) above

human NK1 receptor [23] = target: T7, human NK1 receptor (human, UniProt P25103 1-407); test: radioligand competition vs [3H]substance P, membranes of hNK1 CHO cells
T7 construct: whole, on cells; Used as membrane preparations of transfected CHO cells; also called hNK1; human neurokinin-1 receptor
T7 sequence (P25103 whole entry): as the sequence (P25103 whole entry) above

rat NK1 receptor [24] = target: T8, rat NK1 receptor (rat, UniProt P14600 1-407); test: radioligand competition vs [3H]substance P, membranes of rNK1 CHO cells
T8 construct: whole, on cells; Used as membrane preparations of transfected CHO cells; also called rNK1; rat neurokinin-1 receptor
T8 sequence (P14600 whole entry): as the sequence (P14600 whole entry) above

human δ opioid receptor [25] = target: T9, human δ opioid receptor (human, UniProt P41143 1-372); test: competition vs [3H]DPDPE, hDOR membranes
T9 construct: whole, on cells; Assayed as membrane preparations of transfected cells; also called hDOR; DOR
T9 sequence (P41143 whole entry, stated change not applied): as the sequence (P41143 whole entry, stated change not applied) above

human NK1 receptor [26] = target: T6, human NK1 receptor; test: competition vs [3H]Substance P, hNK1 CHO cell membranes; remark: listed apart in the source
rat NK1 receptor [27] = target: T5, rat NK1 receptor; test: competition vs [3H]Substance P, rNK1 CHO cell membranes; remark: listed apart in the source
human NK1 receptor [28] = target: T6, human NK1 receptor; test: competition vs [3H]Substance P, hNK1 CHO cell membranes; remark: listed apart in the source

T2 sequence (P33535 whole entry): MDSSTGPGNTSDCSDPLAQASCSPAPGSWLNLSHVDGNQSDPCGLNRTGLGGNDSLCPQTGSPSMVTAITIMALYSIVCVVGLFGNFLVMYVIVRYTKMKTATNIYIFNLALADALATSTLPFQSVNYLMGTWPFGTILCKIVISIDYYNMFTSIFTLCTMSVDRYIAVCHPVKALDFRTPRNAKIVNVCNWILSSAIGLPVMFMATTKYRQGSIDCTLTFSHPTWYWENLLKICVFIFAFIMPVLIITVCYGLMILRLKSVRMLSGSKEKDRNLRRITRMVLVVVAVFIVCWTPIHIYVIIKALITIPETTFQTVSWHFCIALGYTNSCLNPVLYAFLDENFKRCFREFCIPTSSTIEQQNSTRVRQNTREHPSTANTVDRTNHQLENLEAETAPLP

In the case of Y[dA]GF[Nle]PS(Glc)W-{NH(3,5-(CF3)2-benzyl)} (also called TY041) [TyrDAlaGlyPheNleProSer(OGlu)TrpNHBn(CF3)2], the “GTP binding EC50” value (human δ opioid receptor [1]) is reported as 7.9 nM, the “GTP binding Emax” value (human δ opioid receptor [1]) is reported as 62% and the “GTP binding EC50” value (rat µ opioid receptor [2]) is reported as 18 nM. The “GTP binding Emax” value (rat µ opioid receptor [2]) was 42%, the “GPI/LMMP IC50” value [3] was 517 nM and the “GPI/LMMP SP antagonist Ke” value (guinea pig NK1 receptor [4]) was 1.8 nM. For the same binder, the “GTP binding EC50” value (human δ opioid receptor [5]) was 7.9 nM, the “GTP binding Emax” value (human δ opioid receptor [5]) was 62% and the “GTP binding EC50” value (rat µ opioid receptor [6]) was 18 nM. The “GTP binding Emax” value (rat µ opioid receptor [6]) was 42%, the “GPI/LMMP IC50” value [7] was 517 nM and the Ki (rat µ opioid receptor [8]) was 8 nM. For the same binder, the Ki (rat µ opioid receptor [9]) was 8 nM, the Ki (rat NK1 receptor [10]) was 14 nM and the Ki (rat NK1 receptor [11]) was 14 nM.

[Dmt][dA]GFMPLW-{NH(3,5-(CF3)2-benzyl)} (also called TY032) [DmtDAlaGlyPheMetProLeuTrpNHBn(CF3)2] was tested, and the “GPI/LMMP IC50” value [12] was 18.6 nM, the “GPI/LMMP Substance P antagonist Ke” value (guinea pig NK1 receptor [13]) was 7.5 nM and the Ki (human δ opioid receptor [14]) was 0.12 nM. For the same binder, the Ki (human δ opioid receptor [15]) was 0.12 nM, the Ki (human NK1 receptor [16]) was 0.0079 nM and the Ki (rat NK1 receptor [17]) was 2.3 nM. The Ki (human NK1 receptor [18]) was 0.0079 nM and the Ki (rat NK1 receptor [19]) was 2.3 nM.

In the case of [Dmt][dA]GFMPLW-NHBn (also called TY034) [DmtDAlaGlyPheMetProLeuTrpNHBn], the “GPI/LMMP IC50” value [12] is reported as 11.4 nM, the “GPI/LMMP Substance P antagonist Ke” value (guinea pig NK1 receptor [13]) is reported as 36.9 nM and the Ki (rat µ opioid receptor [20]) is reported as 0.14 nM. For the same binder, the Ki (human δ opioid receptor [14]) was 0.1 nM, the Ki (human NK1 receptor [16]) was 2.4 nM and the Ki (rat NK1 receptor [17]) was 317 nM.

Y[dA]GF[Nle]PLS(Glc)W-{NH‑Bn(CF3)2} [TyrDAlaGlyPheNleProLeuSer(OGlu)TrpNHBn(CF3)2 (TY055)] was tested, and the “GPI/LMMP SP antagonist Ke” value (guinea pig NK1 receptor [21]) was 8.4 nM, the “GPI/LMMP opioid(mu) agonist IC50” value [22] was 670 nM and the Ki (human NK1 receptor [23]) was 0.052 nM. The Ki (rat NK1 receptor [24]) was 33.9 nM.

Y[dC]GF[Nle]P[dC]W-{NH(3,5-(CF3)2-benzyl)} (disulfide 2-7, also called TY038; TY38) [Tyr[DCysGlyPheNleProDCys]TrpNHBn(CF3)2] was tested, and the “fold lower affinity than TY027” value (human δ opioid receptor [25]) was 85 fold.

Work on YXGFXPLW (D-Pen at 2 and 5 (written X); disulfide 2-5; C-terminal NH-3,5-Bzl(CF3)2 amide, cyclic; also called TY049) [Tyr[DPenGlyPheDPen]ProLeuTrpNHBn(CF3)2] yielded a Ki (human NK1 receptor [26]) of 0.18 nM and a Ki (rat NK1 receptor [27]) of 4.54 nM.

With Y[dA]GF[Nle]PLS(Glc)W-{NH(3,5-(CF3)2-benzyl)} (also called TY055) [TyrDAlaGlyPheNleProLeuSer(OGlu)TrpNHBn(CF3)2] the Ki (human NK1 receptor [28]) was 0.052 nM and the Ki (rat NK1 receptor [11]) was 34 nM.
